Test results taken from publication PMC7593903.

Target: T1, ZafA (Aspergillus fumigatus (FGSC A1163 akuB(KU80)-delta pyrG1 is the study strain; cDNA source 'fungal cDNA')) (UniProt A3QX02)
T1 sequence: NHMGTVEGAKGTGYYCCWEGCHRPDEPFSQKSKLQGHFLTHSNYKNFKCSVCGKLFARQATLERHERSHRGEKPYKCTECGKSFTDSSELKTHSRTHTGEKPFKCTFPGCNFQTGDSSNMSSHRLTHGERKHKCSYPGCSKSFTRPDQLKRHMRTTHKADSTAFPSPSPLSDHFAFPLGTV
Assay: EMSA
Settings: 10 mM Tris-HCl pH 8.0, 50 mM NaCl, 1 mM MgCl2, 500 uM EDTA, 500 uM DTT, 4% glycerol; 500 ng ZafA, 5 ng probe; 30 min at 25 C; Zn/Cu added 10 min after start of …

Sequence | binding
AAGGGCCCAGGGCCTGTCTTGTTGTACGACTTCACTTTCTCCCAGGGTGCCACTGCTTGCTATCTCTATGTAGATAACCGCTGTCTTTCCTCTTTTTTTGACCCTTTCTTCTATTGCTCTGGTCTGCT (double strand) [CtrC promoter EMSA probe, 128 bp] | binds
CTCAAAGCTCGCTCATCGGATTTTTGATTATCAGTTTTGCGAGACCAAGCATGATAGTGACAGAGCATTCAAGGTGAGAATGTGAAGAATGCGTGGCGGCGTAGCATTCTTACT (double strand) [CtrA2 promoter EMSA probe, 114 bp] | no binding
TACCAGGGCCCCTTTCCCTCAAGTTGCTCGCACAGATCTGGATGTTACTTTCATCGAATATATACACGTGGGAAGCTCCCAAGGTCCTCTTGGAT (double strand) [ZafA promoter EMSA probe, 95 bp] | binds
TGCCGCCATTGTTCAGCAGTGCGGTGCTGTCAAGGTCAAGGTCAAGGACGGCCTTCTCCAAGGATGTCACATACAAAGGGAATAGACTGAATAAATCATTTCCTCGGCAACGATCCGA (double strand) [CtrA1 promoter EMSA probe, 118 bp] | no binding

Target: T1, ZafA (Aspergillus fumigatus (FGSC A1163 akuB(KU80)-delta pyrG1 is the study strain; cDNA source 'fungal cDNA'))
Assay: competition
Settings: 10 mM Tris-HCl pH 8.0, 50 mM NaCl, 1 mM MgCl2, 500 uM EDTA, 500 uM DTT, 4% glycerol; 500 ng ZafA, 5 ng probe; 30 min at 25 C; Zn/Cu added 10 min after start of …

Sequence | binding
AAGGGCCCAGGGCCTGTCTTGTTGTACGACTTCACTTTCTCCCAGGGTGCCACTGCTTGCTATCTCTATGTAGATAACCGCTGTCTTTCCTCTTTTTTTGACCCTTTCTTCTATTGCTCTGGTCTGCT (double strand) [CtrC promoter fragment, unlabeled] | binds
AGCAGACCAGAGCAATAGAAGAAAGGGTCAAAAAAAGAGGAAAGACAGCGGTTATCTACATAGAGATAGCAAGCAGTGGCTGGGACGGAGAAAGTGAAGTCGTACAACAAGACAGGCCCTGGGCCCTT (double strand) | no binding
